This series concerns the target in vitro translated, 35S-labeled PARP (full length human poly(ADP-ribose) polymerase), P09874.

Sequence of in vitro translated, 35S-labeled PARP (full length human poly(ADP-ribose) polymerase), P09874 (P09874 whole entry, looked up): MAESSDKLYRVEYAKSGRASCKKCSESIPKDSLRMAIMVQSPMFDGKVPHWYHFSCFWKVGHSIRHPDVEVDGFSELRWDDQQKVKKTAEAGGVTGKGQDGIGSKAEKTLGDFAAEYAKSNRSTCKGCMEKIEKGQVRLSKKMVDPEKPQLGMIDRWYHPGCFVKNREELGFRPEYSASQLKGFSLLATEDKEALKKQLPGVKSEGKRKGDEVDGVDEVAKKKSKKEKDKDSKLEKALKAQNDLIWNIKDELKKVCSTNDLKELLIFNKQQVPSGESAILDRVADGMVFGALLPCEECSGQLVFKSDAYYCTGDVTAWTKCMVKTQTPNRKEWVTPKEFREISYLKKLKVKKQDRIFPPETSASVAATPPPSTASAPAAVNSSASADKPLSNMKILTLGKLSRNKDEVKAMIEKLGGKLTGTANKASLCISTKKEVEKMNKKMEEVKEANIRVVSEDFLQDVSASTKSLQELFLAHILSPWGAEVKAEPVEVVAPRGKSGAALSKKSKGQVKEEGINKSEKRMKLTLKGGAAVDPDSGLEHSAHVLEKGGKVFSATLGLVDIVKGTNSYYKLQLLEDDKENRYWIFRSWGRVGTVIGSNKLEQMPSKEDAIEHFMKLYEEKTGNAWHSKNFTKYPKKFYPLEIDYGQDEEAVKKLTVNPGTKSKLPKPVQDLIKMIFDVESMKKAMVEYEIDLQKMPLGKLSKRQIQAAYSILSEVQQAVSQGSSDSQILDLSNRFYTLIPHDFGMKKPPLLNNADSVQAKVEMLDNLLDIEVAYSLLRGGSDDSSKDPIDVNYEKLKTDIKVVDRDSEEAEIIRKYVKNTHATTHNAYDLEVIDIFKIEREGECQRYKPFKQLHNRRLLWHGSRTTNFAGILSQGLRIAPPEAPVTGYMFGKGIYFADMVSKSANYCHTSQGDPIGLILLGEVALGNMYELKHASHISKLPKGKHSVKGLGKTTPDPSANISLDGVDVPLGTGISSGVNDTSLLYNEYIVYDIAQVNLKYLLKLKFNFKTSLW

B1: CPP32 (endogenous, in HeLa cell S-100) (protein)
chain: MENTENSVDSKSIKNLEPKIIHGSESMDSGISLDNSYKMDYPEMGLCIIINNKNFHKSTGMTSRSGTDVDAANLRETFRNLKYEVRNKNDLTREEIVELMRDVSKEDHSKRSSFVCVLLSHGEEGIIFGTNGPVDLKKITNFFRGDRCRSLTGKPKLFIIQACRGTELDCGIETDSGVDDDMACHKIPVEADFLYAYSTAPGYYSWRNSKDGSWFIQSLCAMLKQYADKLEFMHILTRVNRKVATEFESFSFDATFHAKKQIPCIVSMLTKELYFYH
As for B1, the “cleavage of 35S-labeled PARP (SDS-PAGE, autoradiography)” value was “The activated extracts readily cleaved PARP into 85 kDa and 24 kDa fragments”.

The values above are taken from patent US20030032045.
